Measured values as given in publication PMC4145800.
pKd: −log10 of the molar value.

Columns and labels:
[1] = molecular target: wild-type (polymerization-competent) yeast αβ-tubulin (yeast) (UniProt P09733); test: AUC; sedimentation velocity; TOG1-TOG2 or its mutants mixed with αβ-tubulin (∼5 molar equivalents of αβ-tubulin; seven concentrations of TOG1-TOG2 with 0.3 μM αβ-tubulin); two-site binding model; RB100 with 20 μM GTP, 20°C
[2] = molecular target: wild-type (polymerization-competent) yeast αβ-tubulin (yeast) (UniProt P09733); test: AUC; sedimentation velocity; seven concentrations of TOG1 or TOG2 (44 nM-4.5 μM) titrated into 0.35 μM αβ-tubulin; 1:1 binding isotherm fitted; RB100 with 20 μM GTP, 20°C

Substance “TOG1-TOG2(1-560) of Stu2p (from UniProt P46675 1-560) (domain or fragment)” has a stoichiometry N (αβ-tubulins per TOG1-TOG2) [1] of 2.
Substance “TOG1 domain from Stu2p, TOG1(1-317) (from UniProt P46675 1-317) (domain or fragment)” has a pKd [2] of 7.15 and a stoichiometry N [2] of 1.
With “TOG1-TOG2 of Stu2p with the mutation printed as W314A (from UniProt P46675 1-560) (domain or fragment)” the stoichiometry N (αβ-tubulin per TOG1-TOG2) [1] was 1.
“TOG1-TOG2 of Stu2p with the mutation R519A (from UniProt P46675 1-560) (domain or fragment)” showed a stoichiometry N (αβ-tubulin per TOG1-TOG2) [1] of 1.
